Legend:
[1] = assay type: in vivo, healthy men and postmenopausal women; details: single SC 20 μg; N = 105 per treatment
serum calcium = details: teriparatide 20 μg once a day; cited from earlier work
[2] = cited from earlier work

Substance: EU-teriparatide: Forsteo®, Eli Lilly, The Netherlands; EU-approved teriparatide reference product
- Total adverse events, number of events [1]: 5 e
- Total adverse events, subjects [1]: 4 (3.81%) n (%)

Substance: Teriparatide
- Median increase of serum calcium at peak (serum calcium): 0.4 mg/dL
- Half-life ([2]; after SC injection): approximately 1 h
- Time to peak serum concentration ([2]; after SC injections of 20, 40, and 80 μg): approximately 30 min
- Absolute bioavailability ([2]; following SC administration): 95%

Substance: Teriparatide biosimilar: potential biosimilar of teriparatide developed by Intas Pharmaceutical Ltd., India; test product
- Total adverse events, subjects [1]: 8 (7.62%) n (%)

Substance: US-teriparatide: Forteo®, Lilly USA; US-approved teriparatide reference product
- Total adverse events, number of events [1]: 3 e
- Total adverse events, subjects [1]: 3 (2.86%) n (%)

— PMC9813072 (Osteoporosis International, 2022)
